Source: CN105384819A (UNIV CHINA PHARMA, dated 2016)

Target: T1, rhDLL4(重组人DLL4) (human, UniProt Q9NR61 27-524, limits assumed)
T1 construct: Immobilised on a CM5 chip for SPR and coated on 96-well plates for the MTT assay; also called 人DLL4抗原; DLL4抗原
Test: SPR, Biacore X100, rhDLL4 immobilised on CM5 chip, antibody injected at 0.098-12.5 nM

T1 sequence (Q9NR61 27-524 limits assumed): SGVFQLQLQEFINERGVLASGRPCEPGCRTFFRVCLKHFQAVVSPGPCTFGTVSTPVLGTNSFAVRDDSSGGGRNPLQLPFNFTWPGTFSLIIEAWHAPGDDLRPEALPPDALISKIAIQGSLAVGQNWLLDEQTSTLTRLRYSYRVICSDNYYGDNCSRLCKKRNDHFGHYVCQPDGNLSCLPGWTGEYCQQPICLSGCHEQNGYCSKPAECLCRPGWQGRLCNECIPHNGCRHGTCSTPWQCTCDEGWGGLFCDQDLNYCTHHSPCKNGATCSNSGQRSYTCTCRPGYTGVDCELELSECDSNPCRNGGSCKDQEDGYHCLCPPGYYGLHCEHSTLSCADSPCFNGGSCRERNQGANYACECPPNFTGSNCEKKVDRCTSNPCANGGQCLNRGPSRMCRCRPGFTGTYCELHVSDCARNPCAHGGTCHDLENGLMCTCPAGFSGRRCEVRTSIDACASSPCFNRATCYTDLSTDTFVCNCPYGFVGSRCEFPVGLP

B1: 抗人DLL4人源化抗体H3L2 (antibody, human IgG1, lambda, V domains shown)
VH: QVQLVQSGAEVKKPGSSVKVSCKASGYTFSGYWMQWIKQAPGQGLEWIGAIYPGDGDTRYTQKFKGRATLTADKSTSTAYMELSSLRSEDTAVYYCAGGNFFFDYWGQGTLVTVSS
VL: EIVITQSPDFQSVTPKEKVTITCSVSSSISSSYLHWYQQKPDQSPKPWIYGTSNLASGVPSRFSGSGSGTDYTLTINSLEAEDAATYYCQQWSSSPLTFGQGTKLEIKV
notes: also called 抗DLL4人源化抗体
Kd: 2.26 pM
